Assay results: publication PMC2786213

What was measured:
[1] = target: discoidin domain receptor 1 (DDR1), mouse DDR1a, tagged with cyan or yellow fluorescent protein (mouse); test: FRET or BRET

Sequence of discoidin domain receptor 1 (DDR1), mouse DDR1a, tagged with cyan or yellow fluorescent protein (Q03146 20-911): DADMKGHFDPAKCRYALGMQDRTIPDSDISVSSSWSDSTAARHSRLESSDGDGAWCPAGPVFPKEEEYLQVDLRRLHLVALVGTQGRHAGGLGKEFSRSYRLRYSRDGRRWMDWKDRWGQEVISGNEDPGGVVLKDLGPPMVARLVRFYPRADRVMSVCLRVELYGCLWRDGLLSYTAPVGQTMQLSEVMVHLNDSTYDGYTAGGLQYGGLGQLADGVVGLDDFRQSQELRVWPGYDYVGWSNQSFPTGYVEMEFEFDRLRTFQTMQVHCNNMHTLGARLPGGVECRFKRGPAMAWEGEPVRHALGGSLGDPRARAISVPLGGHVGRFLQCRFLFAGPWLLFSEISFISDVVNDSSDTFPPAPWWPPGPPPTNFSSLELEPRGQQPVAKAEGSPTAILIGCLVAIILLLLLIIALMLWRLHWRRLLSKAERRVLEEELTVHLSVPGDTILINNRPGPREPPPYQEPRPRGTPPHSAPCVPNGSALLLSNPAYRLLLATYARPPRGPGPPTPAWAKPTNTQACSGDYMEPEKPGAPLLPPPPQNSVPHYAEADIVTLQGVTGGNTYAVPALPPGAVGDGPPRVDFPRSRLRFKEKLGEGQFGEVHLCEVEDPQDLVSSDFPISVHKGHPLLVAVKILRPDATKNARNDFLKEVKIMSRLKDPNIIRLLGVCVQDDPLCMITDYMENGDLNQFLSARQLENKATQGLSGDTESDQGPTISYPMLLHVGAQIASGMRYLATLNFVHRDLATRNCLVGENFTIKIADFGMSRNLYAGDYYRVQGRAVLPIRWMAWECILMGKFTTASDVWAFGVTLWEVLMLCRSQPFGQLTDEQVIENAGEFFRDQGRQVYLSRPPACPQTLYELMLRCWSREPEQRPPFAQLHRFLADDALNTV

## discoidin domain receptor 1 (DDR1), mouse DDR1a, tagged with cyan or yellow fluorescent protein
FRET or BRET
  FRET index FC/A (collagen 5 min, aggregated ROI): 14.6
  FRET index FC/A (collagen 30 min, aggregated ROI): 15.2
  FRET index FC/A (collagen 60 min, aggregated ROI): 13.8
  FRET index FC/A (collagen 60 min, nonaggregated ROI): 5.2
[1]
  FRET index FC/A (0 min, no collagen): 5.1
